From paper PMC5811392 (Biochemistry, 2018)

Legend:
[1] = target: T1, Human p53 DNA-binding domain (residues 88-312) (human, UniProt P04637 88-312); test: NMR titration
[2] = target: T1, Human p53 DNA-binding domain (residues …); test: ITC
[3] = target: T1, Human p53 DNA-binding domain (residues …); test: fluorescence polarisation

T1 sequence (P04637 88-312): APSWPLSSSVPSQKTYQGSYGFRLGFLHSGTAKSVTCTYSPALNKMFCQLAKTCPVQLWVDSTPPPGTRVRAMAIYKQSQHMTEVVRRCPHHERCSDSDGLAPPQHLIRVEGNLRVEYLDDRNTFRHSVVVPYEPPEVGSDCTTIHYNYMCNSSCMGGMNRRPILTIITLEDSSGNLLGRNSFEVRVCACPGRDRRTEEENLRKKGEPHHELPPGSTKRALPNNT

Binder | Kd [1] | Kd [2] | Kd [3] | dH [2]
GB1-p23 (110-160) (domain or fragment, human, UniProt Q15185 110-160, looked up) EDDSDEDMSNFDRFSEMMNNMGGDEDVDLPEVDGADDDSQDSDDEKMPDLE | 6 ± 4 µM |  |  | 
FDRFSEMMNNMGGDEDVDLPEVDGADDDSQDSDDEKMPDLE (domain or fragment, human, UniProt Q15185 120-160, looked up) [GB1-p23 (120-160)] |  | 24 ± 15 µM |  | 
full length p23 (residues 1-160) (natural protein, human, UniProt Q15185 1-160, looked up) MQPASAKWYDRRDYVFIEFCVEDSKDVNVNFEKSKLTFSCLGGSDNFKHLNEIDLFHCIDPNDSKHKRTDRSILCCLRKGESGQSWPRLTKERAKLNWLSVDFNNWKDWEDDSDEDMSNFDRFSEMMNNMGGDEDVDLPEVDGADDDSQDSDDEKMPDLE | 8 ± 2 µM | 7 ± 2 µM | 21 ± 7 µM | -1.9 ± 100 kcal/mol
